Patent publication US20210236667A1
Where two headings read alike, the source gives them in different places.

Assays:
[1] = biological target: Human epidermal growth factor receptor (EGFR) (human) (UniProt P00533); test: flow cytometry on MDA-MB-468 cells
[2] = biological target: Human epidermal growth factor receptor (EGFR) (human) (UniProt P00533); test: flow cytometry saturation binding on MDA-MB-468 cells
[3] = biological target: Human epidermal growth factor receptor (EGFR) (human) (UniProt P00533); test: saturation radioligand binding assay on MDA-MB-468 cells
[4] = biological target: Human epidermal growth factor receptor (EGFR) (human) (UniProt P00533); test: immunoreactive fraction (Lindmo) assay on MDA-MB-468 cells
[5] = biological target: Human epidermal growth factor receptor (EGFR) (human) (UniProt P00533); test: competitive radioligand binding on MDA-MB-468 cells pre-blocked with 100-fold excess of unlabeled 8709-scFv-Fc; ^225Ac-8709-scFv-Fc at 50 nM
[6] = biological target: Human epidermal growth factor receptor (EGFR) (human) (UniProt P00533); test: flow cytometry on MDA-MB-468 cells; remark: listed apart in the source

% binding [1] [%]	Kd [2] [nM]	Kd [3] [nM]	immunoreactive fraction [4]	fold reduction in the binding of ^225Ac-8709-scFv-Fc to EGFR [5] [fold]	% binding [6] [%]	fold higher KD as compared to 8709-scFv-Fc [2] [fold]	Binder
> 90	4.2						8709-scFv-Fc-PEG6-DM1 (scFv, part only; not given: scFv linker, hinge and Fc, V domains shown, not shown: another chain or arm of the molecule; a dimerising Fc or GST; small tags and cut ends, PEG6-DM1 coupled via DM1-PEG6-NHS, drug to antibody ratio 3.5; attachment sites not stated.) VH: EVQLVESGGGLVQPGGSLRLSCAASGFNLYSSSMHWVRQAPGKGLEWVASIYPYSGYTYYADSVKGRFTISADTSKNTAYLQMNSLRAEDTAVYYCARYPFGVSAYYAMDYWGQGTLVTVSS VL: DIQMTQSPSSLSASVGDRVTITCRASQSVSSAVAWYQQKPGKAPKLLIYSASSLYSGVPSRFSGSRSGTDFTLTISSLQPEDFATYYCQQSYWLITFGQGTKVEIK
		14.5	0.86				^225Ac-8709-scFv-Fc (scFv, part only; not given: scFv linker, hinge and Fc, V domains shown, not shown: another chain or arm of the molecule; a dimerising Fc or GST; small tags and cut ends, Macropa chelator (coupled via macropa-NCS) carrying ^225Ac; attachment sites not stated.) VH: EVQLVESGGGLVQPGGSLRLSCAASGFNLYSSSMHWVRQAPGKGLEWVASIYPYSGYTYYADSVKGRFTISADTSKNTAYLQMNSLRAEDTAVYYCARYPFGVSAYYAMDYWGQGTLVTVSS VL: DIQMTQSPSSLSASVGDRVTITCRASQSVSSAVAWYQQKPGKAPKLLIYSASSLYSGVPSRFSGSRSGTDFTLTISSLQPEDFATYYCQQSYWLITFGQGTKVEIK
> 90	1.1			23.2			8709-scFv-Fc (scFv, part only; not given: scFv linker, hinge and Fc, V domains shown, not shown: another chain or arm of the molecule; a dimerising Fc or GST; small tags and cut ends) VH: EVQLVESGGGLVQPGGSLRLSCAASGFNLYSSSMHWVRQAPGKGLEWVASIYPYSGYTYYADSVKGRFTISADTSKNTAYLQMNSLRAEDTAVYYCARYPFGVSAYYAMDYWGQGTLVTVSS VL: DIQMTQSPSSLSASVGDRVTITCRASQSVSSAVAWYQQKPGKAPKLLIYSASSLYSGVPSRFSGSRSGTDFTLTISSLQPEDFATYYCQQSYWLITFGQGTKVEIK
> 90	11.3				> 85	10.4	Macropa-8709-scFv-Fc (scFv, part only; not given: scFv linker, hinge and Fc, V domains shown, not shown: another chain or arm of the molecule; a dimerising Fc or GST; small tags and cut ends, Macropa chelator coupled via macropa-NCS, not radiolabeled; attachment sites not stated.) VH: EVQLVESGGGLVQPGGSLRLSCAASGFNLYSSSMHWVRQAPGKGLEWVASIYPYSGYTYYADSVKGRFTISADTSKNTAYLQMNSLRAEDTAVYYCARYPFGVSAYYAMDYWGQGTLVTVSS VL: DIQMTQSPSSLSASVGDRVTITCRASQSVSSAVAWYQQKPGKAPKLLIYSASSLYSGVPSRFSGSRSGTDFTLTISSLQPEDFATYYCQQSYWLITFGQGTKVEIK
